The text below walks through data of patent US20160009772A1 (Hoffmann-La Roche, published 2016).

Like-named read-outs stand apart in the source and are kept apart here.

A word on the IC50: it is the concentration needed to halve the response being measured. A lower IC50 goes with inhibition by little substance.

The target in test [1] is T1, N-terminal His (six histadine)-tagged IRF5 (222-425) SEQ ID NO 22 (human, UniProt Q13568 222-425).
T1 construct: also called His tag IRF5(222-425); his-tagged IRF5 (222-425, lacking helix 5 and unable to homodimerize)
T1 sequence (Q13568 other isoform, or with tags, fused parts or gaps limits assumed): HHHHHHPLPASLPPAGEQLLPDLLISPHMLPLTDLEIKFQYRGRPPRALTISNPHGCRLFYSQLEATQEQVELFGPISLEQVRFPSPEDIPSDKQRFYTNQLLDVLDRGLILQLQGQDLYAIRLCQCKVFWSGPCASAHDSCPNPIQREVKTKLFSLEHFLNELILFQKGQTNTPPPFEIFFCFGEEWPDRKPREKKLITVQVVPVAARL
As to the kind of experiment: direct binding TR-FRET, FITC peptide and Tb anti-His antibody (FIG. 2). On the technique in general: Time-resolved FRET reads energy transfer from a long-lived donor to a nearby acceptor.
Description: Aliquots (1.6 μl per well) of 4 μM FITC peptide solution in DMSO were added into 96-well polypropylene plates (Corning). […] The samples were incubated at room temperature for 30 min. […] Samples were incubated at 4° C. for overnight and 18 μl per well were transferred to small volume 384-well polystyrene plates (Corning) in duplicates.

In test [2] the target is T2, IRF5(222-467, S430D), S430D phosphomimetic construct of IRF5 (222-467) (human, UniProt Q13568-4 222-467).
T2 construct: range 222-467; Used in the dimer assay in two tagged forms at once (biotin tag and His tag); S and R stand 10 residues further (S440, R363), so the construct is probably numbered on an isoform 10 residues shorter; also called mutant S430D (222-467); biotin tag IRF5(222-467, S430D)
T2 sequence (Q13568 232-477 S440D limits assumed): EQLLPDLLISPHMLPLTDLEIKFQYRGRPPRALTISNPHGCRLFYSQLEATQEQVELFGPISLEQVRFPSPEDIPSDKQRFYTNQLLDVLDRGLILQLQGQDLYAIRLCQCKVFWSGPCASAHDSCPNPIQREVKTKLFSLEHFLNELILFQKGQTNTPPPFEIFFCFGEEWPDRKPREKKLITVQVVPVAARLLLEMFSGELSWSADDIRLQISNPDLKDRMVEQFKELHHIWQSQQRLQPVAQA
Description: TR-FRET IRF5 dimerization inhibition, S430D (222-467), peptide titrated.
Description: (§1) The samples were incubated at room temperature for 20 min. Seventeen microliters per well of detection solution containing 10 nM europium (Eu) conjugated streptavidin and 80 nM allophycocyanin (APC) conjugated anti-His antibody (Columbia Biosciences) in Assay Buffer (without DTT) were added. The samples were incubated at room temperature for 60 min followed by overnight incubation at 40 C and 30 ul per well were transferred to 384-well polystyrene plates (Matrix, Thermal Scientific) in duplicates. […] The data were processed in Excel XLfit and the IC50 values were calculated using a nonlinear curve-fitting algorithm (four parameter equation). The data represent an average of 3 independent experiments (each run in triplicates) and the reported errors represent standard deviation (s.d.).

The target in test [3] is T2, IRF5(222-467, S430D), S430D …. The test is described as above. The source holds these as a separate data set.
Description: as §1

In the case of Ac-YLKFIPLKRAIWLIK-NH2 (also: FITC label, position and linker not given here, Kept apart from m13) [control FITC labeled CPP designed not to bind IRF5 (SEQ ID NO: 23)], the binding result in test [1] is recorded as “no binding (tested: 0-10.5 uM His tag IRF5(222-425))”.
Take Ac-IRLQISNPDLKDLMVQWFKDGGPSSGAPPPS-NH2 [Ac-IRLQISNPDLKDLMVQWFKDGGPSSGAPPPS-NH2 (SEQ ID NO: 9)]: the IC50 in test [2] amounted to 2420 nM.
The molecule Ac-PFPPLPIGEEAPKDDMVRFFKDLHQYLNVV-NH2 [Ac-PFPPLPIGEEAPKDDMVRFFKDLHQYLNVV-NH2 (SEQ ID NO: 10)] showed a 50% inhibitory concentration (IC50) in test [2] of 1670 nM.
As for Ac-YLKFIPLKRAIWLIK-NH2 [Ac-YLKFIPLKRAIWLIK-NH2 (SEQ ID NO: 23), control CPP designed not to bind IRF5], in test [3], the half-inhibitory concentration (IC50) is above 75000 nM.
